According to patent US20240050568A1 (NANJING IASO BIOTECHNOLOGY, published 2024):
Values belong to the binder of their own block, whether it stands above or below them.

What was measured:
[1] = target: T1, CD5 antigen (Acro, CD5-H52H5) (UniProt P06127 25-371); experiment: BLI (Octet), IgG loaded on the biosensor, CD5 antigen 100 to 1.563 nM, 1:1 model
T1 construct: Bought protein
T1 sequence (looked up): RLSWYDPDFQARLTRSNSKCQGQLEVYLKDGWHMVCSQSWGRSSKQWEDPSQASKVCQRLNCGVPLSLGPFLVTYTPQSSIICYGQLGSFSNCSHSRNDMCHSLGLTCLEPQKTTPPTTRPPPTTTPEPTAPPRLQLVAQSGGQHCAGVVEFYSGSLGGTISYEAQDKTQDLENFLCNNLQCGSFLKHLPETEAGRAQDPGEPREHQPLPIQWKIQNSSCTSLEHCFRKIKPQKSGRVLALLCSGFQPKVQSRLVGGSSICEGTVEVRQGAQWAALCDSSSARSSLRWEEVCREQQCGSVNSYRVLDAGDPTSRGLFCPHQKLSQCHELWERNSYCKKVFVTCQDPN

[2] = target: T2, human CD5 expressed on cells (human, UniProt P06127 25-495); experiment: flow cytometry on CCRF-CEM-Luc cells, percent positive cells fitted (called Kd in paragraph 233); 2nd time
T2 construct: whole, on cells; also called CD5 positive target cells; CCRF-CEM-Luc
T2 sequence (looked up): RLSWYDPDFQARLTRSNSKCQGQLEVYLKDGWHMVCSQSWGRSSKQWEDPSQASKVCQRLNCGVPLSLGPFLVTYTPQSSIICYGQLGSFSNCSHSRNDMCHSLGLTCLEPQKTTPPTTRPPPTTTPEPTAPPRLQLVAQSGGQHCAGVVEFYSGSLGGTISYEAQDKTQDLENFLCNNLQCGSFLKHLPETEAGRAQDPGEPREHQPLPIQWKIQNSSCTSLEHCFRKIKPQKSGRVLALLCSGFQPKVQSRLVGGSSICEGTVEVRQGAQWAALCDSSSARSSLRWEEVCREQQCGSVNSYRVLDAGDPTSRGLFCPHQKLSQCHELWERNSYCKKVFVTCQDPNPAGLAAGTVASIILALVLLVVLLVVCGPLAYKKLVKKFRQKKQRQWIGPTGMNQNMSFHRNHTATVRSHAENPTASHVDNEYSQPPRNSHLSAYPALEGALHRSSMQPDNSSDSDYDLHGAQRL
Experimental: (§1) The relationship between the percentage of fluorescence-labeled positive CD5⁺ target cells and different concentrations of CD5 tandem single-domain antibody was analyzed by fitting using Graphpad Prism software to calculate the EC50 constant. A total of three independent repetitions were performed in this experiment.

[3] = target: T2, human CD5 expressed on cells; experiment: flow cytometry on JVM-2-Luc-CD5 cells (called Kd in paragraph 233); average of three experiments
Experimental: as §1

[4] = target: T2, human CD5 expressed on cells; experiment: flow cytometry on MEC-1-CD5-Luc cells (called Kd in paragraph 233); average of three experiments
Experimental: as §1

[5] = target: T2, human CD5 expressed on cells; experiment: flow cytometry on SUP-T1-Luc cells, percent positive cells fitted (called Kd in paragraph 233); 1st time
Experimental: as §1

[6] = target: T2, human CD5 expressed on cells; experiment: flow cytometry on CCRF-CEM-Luc cells, percent positive cells fitted (called Kd in paragraph 233); 3rd time
Experimental: as §1

[7] = target: T2, human CD5 expressed on cells; experiment: flow cytometry on CCRF-CEM-Luc cells, percent positive cells fitted (called Kd in paragraph 233); 1st time
Experimental: as §1

[8] = target: T2, human CD5 expressed on cells; experiment: flow cytometry on SUP-T1-Luc cells (called Kd in paragraph 233); average of three experiments
Experimental: as §1

[9] = target: T2, human CD5 expressed on cells; experiment: flow cytometry on MEC-1-CD5-Luc cells, percent positive cells fitted (called Kd in paragraph 233); 2nd time
Experimental: as §1

[10] = target: T2, human CD5 expressed on cells; experiment: flow cytometry on JVM-2-Luc-CD5 cells, percent positive cells fitted (called Kd in paragraph 233); 3rd time
Experimental: as §1

[11] = target: T2, human CD5 expressed on cells; experiment: flow cytometry on MEC-1-CD5-Luc cells, percent positive cells fitted (called Kd in paragraph 233); 1st time
Experimental: as §1

[12] = target: T2, human CD5 expressed on cells; experiment: flow cytometry on SUP-T1-Luc cells, percent positive cells fitted (called Kd in paragraph 233); 3rd time
Experimental: as §1

[13] = target: T2, human CD5 expressed on cells; experiment: flow cytometry on JVM-2-Luc-CD5 cells, percent positive cells fitted (called Kd in paragraph 233); 1st time
Experimental: as §1

[14] = target: T2, human CD5 expressed on cells; experiment: flow cytometry on JVM-2-Luc-CD5 cells, percent positive cells fitted (called Kd in paragraph 233); 2nd time
Experimental: as §1

[15] = target: T2, human CD5 expressed on cells; experiment: flow cytometry on SUP-T1-Luc cells, percent positive cells fitted (called Kd in paragraph 233); 2nd time
Experimental: as §1

[16] = target: T2, human CD5 expressed on cells; experiment: flow cytometry on CCRF-CEM-Luc cells (called Kd in paragraph 233); average of three experiments
Experimental: as §1

[17] = target: T2, human CD5 expressed on cells; experiment: flow cytometry on MEC-1-CD5-Luc cells, percent positive cells fitted (called Kd in paragraph 233); 3rd time
Experimental: as §1

[18] = target: T2, human CD5 expressed on cells; experiment: cell-based or functional assay
[19] = target: T3, fluorescent dye-labeled human CD5 protein (human, UniProt P06127 25-371, limits assumed, fluorescent dye label (dye and sites not stated)); experiment: flow cytometry: CT125A cells with graded fluorescent human CD5 protein, percent labelled CAR+ cells fitted; 2nd time
T3 construct: also called human CD5 antigen
T3 sequence (looked up): T1 sequence (looked up)
From the text: (§2) The relationship between the percentage of the fluorescence-labeled CAR+positive cells and the concentration of CD5 protein was fitted by Graphpad Prism software to calculate the affinity EC50 constant. This experiment was completed by Shanghai IASO Biotherapeutics Co., Ltd., and a total of three independent experiments were repeated.

[20] = target: T3, fluorescent dye-labeled human CD5 …; experiment: flow cytometry: CT125A cells with graded fluorescent human CD5 protein, percent labelled CAR+ cells fitted; 1st time
From the text: as §2

[21] = target: T3, fluorescent dye-labeled human CD5 …; experiment: flow cytometry: CT125A cells with graded fluorescent human CD5 protein; average of three experiments
From the text: as §2

[22] = target: T3, fluorescent dye-labeled human CD5 …; experiment: flow cytometry: CT125A cells with graded fluorescent human CD5 protein, percent labelled CAR+ cells fitted; 3rd time
From the text: as §2

Kd [1]: 1.67 nM
koff [1]: 0.000189 s⁻¹
kon [1]: 113000 M⁻¹ s⁻¹
B1: FHVH3VH1 (#61-42 IgG) (Fc fusion)
chain: QVQLVQSGAEVKKPGSSVKVSCKASGGTFSNYAISWVRQAPGQGLEWMGWISAYNGDTKYAQRLQGRVTMTTDTSTSTAYMELRNLRSDDTAVYYCARYESMSGQDIWGQGTLVTVSSGGGGSGGGGSGGGGSEVQLLESGGGLVQPGGSLRLSCAASGFTFSHSAMGWVRQAPGKGLEWVSSIYARGGYTYYADSVKGRFTISRDNSKNTLYLQMNSLRAEDTAVYYCARGYHLEYMVSQDVWGQGTLVTVSS
notes: also called anti-CD5 IgG; not shown: human IgG4 Fc

Kd [1]: 27.4 nM
koff [1]: 0.000309 s⁻¹
kon [1]: 12500 M⁻¹ s⁻¹
B4: FHVH4 (#62 IgG) (Fc fusion)
chain: QVQLVQSGAEVKKPGESLRISCKASGYSFSNHWIGWVRQKPGKGLEWMGSVYPGDSDTRYSPSFQGHVTVSADKSMNTAYLQWSSLKTSDTAMYYCARGGTIDGDYGGRQDFWGQGTMVTVSS
notes: as for B1

Kd [1]: 3.96 nM
koff [1]: 0.000288 s⁻¹
kon [1]: 72800 M⁻¹ s⁻¹
B6: FHVH3 (#61 IgG) (Fc fusion)
chain: QVQLVQSGAEVKKPGSSVKVSCKASGGTFSNYAISWVRQAPGQGLEWMGWISAYNGDTKYAQRLQGRVTMTTDTSTSTAYMELRNLRSDDTAVYYCARYESMSGQDIWGQGTLVTVSS
notes: also called #61 clone; anti-CD5 IgG; not shown: human IgG4 Fc

EC50 [19]: 1.22 nM
EC50 [20]: 3.82 nM
EC50 [21]: 2.07 nM
EC50 [22]: 1.18 nM
B7: FHVH3VH1 CAR (other)
chain: QVQLVQSGAEVKKPGSSVKVSCKASGGTFSNYAISWVRQAPGQGLEWMGWISAYNGDTKYAQRLQGRVTMTTDTSTSTAYMELRNLRSDDTAVYYCARYESMSGQDIWGQGTLVTVSSGGGGSGGGGSGGGGSEVQLLESGGGLVQPGGSLRLSCAASGFTFSHSAMGWVRQAPGKGLEWVSSIYARGGYTYYADSVKGRFTISRDNSKNTLYLQMNSLRAEDTAVYYCARGYHLEYMVSQDVWGQGTLVTVSSFVPVFLPAKPTTTPAPRPPTPAPTIASQPLSLRPEACRPAAGGAVHTRGLDFACDIYIWAPLAGTCGVLLLSLVITLYCNHRNKRGRKKLLYIFKQPFMRPVQTTQEEDGCSCRFPEEEEGGCELRVKFSRSADAPAYQQGQNQLYNELNLGRREEYDVLDKRRGRDPEMGGKPRRKNPQEGLYNELQKDKMAEAYSEIGMKGERRRGKGHDGLYQGLSTATKDTYDALHMQALPPR
notes: Signal peptide left out; T2A remnant at the C-terminus not written; also called CT125A; CT125A injection
cytotoxicity on CCRF-CEM-Luc cells, effector-target ratio 1:1 [18]: 95.6%
cytotoxicity on CCRF-CEM-Luc cells, effector-target ratio 2:1 [18]: 96.9%
cytotoxicity on JVM-2-Luc-CD5 cells, effector-to-target ratio 5:1 [18]: 96.4%
cytotoxicity on JVM-2-Luc-CD5 cells, effector-to-target ratio 10:1 [18]: 98.5%
cytotoxicity on MEC-1-CD5-Luc cells, effector-to-target ratio 1:1 [18]: 97.7%
cytotoxicity on MEC-1-CD5-Luc cells, effector-to-target ratio 2:1 [18]: 98.2%
cytotoxicity on SUP-T1-Luc cells, effector-target ratio 1:1 [18]: 56.9%
cytotoxicity on SUP-T1-Luc cells, effector-target ratio 2:1 [18]: 91%

Second part, the binder before the results:

B2: CT125A tandem single-domain antibody rabbit FC fusion protein RD125 61-42 rFc (Fc fusion)
chain: B1 chain
notes: also called CD5 tandem single-domain antibody rabbit Fc fusion protein; not shown: rabbit Fc
EC50 [2]: 2.54 nM
EC50 [3]: 0.64 nM
EC50 [4]: 1.14 nM
EC50 [5]: 2.72 nM
EC50 [6]: 3.39 nM
EC50 [7]: 3.04 nM
EC50 [8]: 4.02 nM
EC50 [9]: 0.92 nM
EC50 [10]: 0.72 nM
EC50 [11]: 1.3 nM
EC50 [12]: 4.75 nM
EC50 [13]: 0.64 nM
EC50 [14]: 0.56 nM
EC50 [15]: 4.58 nM
EC50 [16]: 2.99 nM
EC50 [17]: 1.2 nM

B3: FHVH1 (#42 IgG) (Fc fusion)
chain: EVQLLESGGGLVQPGGSLRLSCAASGFTFSHSAMGWVRQAPGKGLEWVSSIYARGGYTYYADSVKGRFTISRDNSKNTLYLQMNSLRAEDTAVYYCARGYHLEYMVSQDVWGQGTLVTVSS
notes: also called #42 clone; anti-CD5 IgG; not shown: human IgG4 Fc
Kd [1]: 2.9 nM
koff [1]: 0.000139 s⁻¹
kon [1]: 48000 M⁻¹ s⁻¹

B5: FHVH2 (#60 IgG) (Fc fusion)
chain: QVQLVESGGGLVQPGGSLRLSCAASGFTFSSYEMNWVRQAPGKGLEWVSYISSSGSTIYYADSVKGRFTISRDNAKNSLYLQMNSLRAEDTAVYYCARVAQREGDVWGKGTTVTVSS
notes: as for B1
Kd [1]: 8.32 nM
koff [1]: 0.000212 s⁻¹
kon [1]: 25500 M⁻¹ s⁻¹
